Measurements: the domain aggregation screens of Martell et al. (2025)

experiment: soluble fraction after stress (log2 fold change); higher = more stays soluble; pooled small domains, quantitative proteomics; conditions: stress: 75 degC
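Note: 20 min heating vs room temperature control held 20 min.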

Compared with “HMIYGNGVTDLKDLANGATIIIPADDSNETRALFLLQQEGLIKLPDDADAAKGVSTLDIVDGGGWVTSM”, “HMIYKLIADRLKNRINSDEFEVGDALPSEKALAGELEVSVMTIRKALTLLESEKLIVKRHGSGSYVARKSN” is lower in “soluble fraction (log2)” value: 0.0362 for the first, -1.77 for the second.

Compared with “HMIYRTTSVPIDNISTQKFNLQEGWIEMNKNEVEDFIRQKNLELVVTDSNVMLDKFALNGDPNKFKVFKY”, “HMKADTSPEAQKKIIAAFEPYSVNKDQIEKLIQRRIDSITPAQVIRLRKILASLKDGMSSPEDWFE” is lower in “soluble fraction (log2)” value: 0.0778 for the first, -0.195 for the second.

Going from “HMKAERLLALLTILLSGKRVSARWLSEELEVSERTVYRDVEALSEAGFPVYATTGRDGGFSLIDGF” to “HMKAKPTLLTPYEERLKGWLETDSRRPKRDRRTGLALFAKLQQEGFTGSYTRVTEYIRRWRDSGG”, the “soluble fraction (log2)” value falls from -2.01 to -2.87.

Compared with “HMKALPSAEDVALARESGRVLSTVLQTRAETQQIDFHDDKGAVRSVTLPTTALRLLLDVLTEIGQGNAV”, “HMKALRNQDVVVGKPLAMAVYDQHGVLLLGRGHVVISESQRQQLLERGFSIDAEQLGRLRAAIEATQRV” is lower in “soluble fraction (log2)” value: -0.106 for the first, -1.17 for the second.

Compared with “HMKALYHQLVDLLKKRMESGMIPHDKLPSERELTAQYGVSRTTVRLALQELENTGYIYRRHGKGTFVSDI”, “HMKANIGDQVFTQLKDQIINGEWRPGDRIPSEAQLIQLFGVSRGTVRQAVQKLAGEGLIVTRHGEGSFVQG” is higher in “soluble fraction (log2)” value: -2.85 for the first, -0.0329 for the second.

First: HMKAQLQHIIGSNIKLARNTQGYTQEGLAERAEISVEHLKQVERGKKMLSVESLVNVANALQVSVDSLV
Second: HMKAQVKSVLDDIPGIGQTRRKALMRYFKSLEKIREASVEELKEADAMNERAAQSVYAFFHK
The “soluble fraction (log2)” value of the first is higher: 0.0141 for the first, -0.775 for the second.

Compared with “HMKAQVKSVLDEIPGVGPTRRKALMKHFTSIEEIKQAEFETLLEAEGMNRAAAQSVYDFFHN”, “HMKDESQLVGAEGKAVTPLRPTGVALIGEKRLDVLTEGEFIPRNSDIIVSRVEGNKIIVKLKN” is higher in “soluble fraction (log2)” value: -0.232 for the first, 0.00394 for the second.

Going from “HMKDHLRFEILSFAGDLRNGVVKTRQEFETIFAFYDKYEEIITALKVHNGYVDSEFDFIKEKFKELKSK” to “HMKDLQAISERMEEIISFAKANDNEISLFIVQDIIKNKKTGIDEDLLNMALYQIKEQGIKVLPA”, the “soluble fraction (log2)” value rises from -2.78 to -0.176.

First: HMKDSIQIPNVVGMTIKDAQSQYGKSFSIIEQNRTESTKPAGTILEQTPAGGDTVSKRDNIIIRVVVSLG
Second: HMKDSKSALQEYALERKMGLPVYEVVDRSGPDHAPQFVIAVSLGEWRLEAKGASKRQAEQQAASLMLEEI
The “soluble fraction (log2)” value of the first is lower: -1.45 for the first, -0.174 for the second.

First: HMKDYTIDDIINSKVEHPLGGYQSRFKVGEYEVSVVGGRQTNHGDFIHTFELAIFDKNNNFLRNLTPVTID
Second: HMKEATTSPLDGIPGIGSKRKKALLSHFGSARSVARADIPDLMRVDGISRQVAETIYGWFHN
The “soluble fraction (log2)” value of the first is higher: 0.0559 for the first, -0.417 for the second.

Compared with “HMKEDFPLLEQLRYTGEGADVTGTAEKMESIQALRSAADSGGFRATLGDIQQIPGGGLRFTLSLRGSR”, “HMKEDNPIVLINLQAKEGEWVFKGTGLPYVGKYHQHKNGEYMIGIGVLNLNHELKPDEIIIPNPNK” is lower in “soluble fraction (log2)” value: -0.0408 for the first, -0.362 for the second.

Compared with “HMKEEDYEVFMRLINVRGIGPKSALNILGVISGQEMIQAIENDDIKRLKSLPGIGAKTAGQIVLDLKGKFV”, “HMKEFIPPVLDDVLKFFSGSLLPDWENQGRLFFSHYNSQGWRKGTGVQVTDWDSLANKWILDEKIKRDARS” is higher in “soluble fraction (log2)” value: -0.746 for the first, -0.489 for the second.

Compared with “HMKEGTIPPVVNRTLSDAEFVLKSYGYELGRVSEQHSDMPKDIVIKQSPEAGTVADPGTRVDVVVSIGKA”, “HMKEHDTLALRLTAILRKLNDGEKLVPRELAEEFNVGIRTIQRDLTERLSFLDLEKTNGAYSLPTRNL” is lower in “soluble fraction (log2)” value: 0.485 for the first, -0.843 for the second.

First: HMKEIIFRGIGEFILDYKSLVIEFLNKNNYANLSMDAPVDEVNKAVANNMLNEDFVTELLLFQRRVE
Second: HMKEILLITGKGLHSGQDDVYKSAQLSKLRYSVPEFIKSNLEISQLILSVETPLQKDGGDGALLIK
The “soluble fraction (log2)” value of the first is lower: -4.14 for the first, -0.0322 for the second.

Compared with “HMKEILVGVEPLSKKQIIIKKGIKGRSDYIIFEKKNYGLPENLKPEEVSIEIALKIIDEKKKRKA”, “HMKEIPTKKGDMLEIYEANGKYILKYPTFNITMPEVVKEIPKEAVDSYLAGKHDGEELINYANFGFWKS” is higher in “soluble fraction (log2)” value: -1.48 for the first, -0.0757 for the second.

“HMKEKDAYTSEILDTLKNAKLLVVEGTVYPLLTRLKNDGLLNYRWEESTSGPPRKYYGLTDEG” and “HMKEKIIKEPYDLFTTDKIGQALEVQALLARQGIKVQRRVDGTKSTLFLENYTQSEKDQALLAVVRSGIV” are within 0.2 log units of each other in “soluble fraction (log2)” value: -0.704 for the first, -0.719 for the second.

Compared with “HMKEKPLWAIRITELREEHYFTQTDVSKALGIAQTTYAGYETGRHEPDFETMIKIADIYKVSLDYLIGR”, “HMKELFETLPDVLDAKLLASALSISKAGAYQLLNRPDFPTLQVGGWKLVTKQKLALWMEQHTN” is lower in “soluble fraction (log2)” value: -2.03 for the first, -3.39 for the second.

First: HMKELFGQRLREQRLKQNLTLEQLAEKANLSPNYVGMVERGLKEPGLATIVKLLNGLNVSADTLL
Second: HMKELLTKQQREEILETVKTKTPKDFGYTAEHWTTGFLGKWIEEHYEVEYKSKTSLYLVFKKASFTYHKPG
The “soluble fraction (log2)” value of the first is lower: -0.446 for the first, 0.24 for the second.

Compared with “HMKELTARQIEILDFITNYEWRHGYWPSIRNIQVQFSYKSTNAVMGHLRALERKGAIERIPGQARTFRIH”, “HMKEPFETMPDVMDAKQIAEALQISKAGAYNLLNSPDFPTLRIGGRKLVMKNELVEWLKSHTNRK” is higher in “soluble fraction (log2)” value: -3.53 for the first, 0.428 for the second.

Compared with “HMKEPPTLEEIKNYFASKLSTELESEKFFNYFESNGWLVGGKTPMKNWQSAANNWLINMSKFN”, “HMKEPQLGPVRKWSDQTGNFGIEAQFVKREGDNILLKRADQRTISIPLEKLSDADQEHLKQEEQKQAME” is higher in “soluble fraction (log2)” value: -0.853 for the first, -0.333 for the second.

Going from “HMKEQLEAYVNRLFADAALTIRNAEVRQEILQHALDRYDDLIASGKTEQEAYDETVSGIGDVSGLYEHK” to “HMKETKVIHVHLIFKKTSRFFGSISAIYSEFTAEEIGITEETLRHKGLSDGVSFATKKAIIQQGVLIR”, the “soluble fraction (log2)” value falls from -0.584 to -2.78.

“HMKEVDSESAFAERGISEVWIPALQKMGILTLEALDAANPNKVFNDLGGMRKKLKIDAAMPTKDEVTAWIQ” and “HMKEVKPSDFFLSKLDEDHNLIEKFNALSSFKQKEFIEYIDSAKQEKTKHDRFEKIKPILLSNIGLNDKYR” are within 0.2 log units of each other in “soluble fraction (log2)” value: 0.0576 for the first, -0.0777 for the second.

Compared with “HMKEVVVPDYFLKQLQKNKKAFITFNNFSPSHKREYVEWITEAKTEETKNRRMKSAIEWMSEGKSRNWKYI”, “HMKFGETLIDLRKRNGLTQEELAAKLYVTRQAVSRWERGEVTPGIDMLKLIANVLNEPVAHLLDW” is lower in “soluble fraction (log2)” value: -0.589 for the first, -2.14 for the second.

First: HMKFNRPMSEILQEWENKLGTTSDAELAGLIGVVTMTINRWRKNETKPDLSALNRYDRIVNLVVNNIKQL
Second: HMKFPPELVEFIEGLSLLKPPLNYATVHRRAEKLAIKKGWASPSYSTVRNIIRKLSPALTTLAHEG
The “soluble fraction (log2)” value of the first is higher: -2.27 for the first, -2.57 for the second.

Compared with “HMKGAADPAIKQKVLDYLDTVEKAKSKEIAKAISEEKSAVDLAVKELAFEDKVEYLYITTTFVALKGKVA”, “HMKGALQIAIEEGFNWNLDKKYWNIVQSTVIAKRLGLKTTSGLKEAIEGMGGEYKRTKKARGYLVPTFKD” is lower in “soluble fraction (log2)” value: -1.51 for the first, -3.98 for the second.

Compared with “HMKGDYWIIDLDKNYQYAIISEPDRQYLWILSRSPNMDTQTLETLKEKIRSKGFDLTYLKQTL”, “HMKGHQASTTWISERVKDIIKEDPTLGARKLQKRLEIHYNIELSYFKVWSGKNLQWMIFMVL” is higher in “soluble fraction (log2)” value: -1.53 for the first, 0.0846 for the second.

Compared with “HMKGSYTVKSGDNLWSIARKFYGGSGSTWTKIYSANKSTIESTARRYGRSSSDNGHWIYPGTVLVIP”, “HMKGVSFEEIERAVRTAQNPEADETAQQHAGMVFSRMEGNELFDKLVQSSSTIGKKITGLMDYYL” is higher in “soluble fraction (log2)” value: -0.924 for the first, -0.239 for the second.

“HMKGYIGESKARNIALKKAPGASITKFEFDKDDGIAVYEVELRKGIYEYELKINAVTGAIIEFEKDIE” and “HMKHKYWEIKERIKKDILNEVYKKGESIPSERDLAGIYDVTRVTVQKAMAMLVQEGYIERIHGKGMFVLKN” are within 0.2 log units of each other in “soluble fraction (log2)” value: -2.2 for the first, -2.32 for the second.

Going from “HMKHRFVVGEVLSIGKLQHEITLKTAQGERKFQLDKQDLPASIQDGAKVRAELNEAGRVIDVHPLK” to “HMKHYMKITDISLQTRDKNRVNVSVDGKYRFSLDVFQVGELGLKVGREYTDEELTALEDESQFG”, the “soluble fraction (log2)” value falls from -0.0848 to -1.11.

First: HMKIATIELVKEAVKSKLGKFTKRDIMELVPSVGKTTIENMLKQLIGEGYIERHGKGRATFYVK
Second: HMKIDANTFTSIEKQLFVLLSKTPTPMGSIFVALAKEDKEAVWEVIHFLEAENRLIMNEDGTIQL
The “soluble fraction (log2)” value of the first is higher: -0.761 for the first, -2.14 for the second.

Compared with “HMKIDEVSFAYIERTLFSMLGKLPTPVNKVIATIGEEKKETIWEVIRFLESENKLITNEDGTLQL”, “HMKIDNIIIYITGGVKKEGVYELPDGSRISDAIEQAEGLKANADTSSINLAYKLEDGMKIKIPLQGEN” is higher in “soluble fraction (log2)” value: -2.46 for the first, -0.181 for the second.

“HMKIDNPEYQKIMDMIPYFFQTRNYDEAIEALSYVIEQEPSFSEAYNKRATFYFMMGDFENSMKDIESTLA” and “HMKIEEVIEKLKTDSIISRKEYEDIVRQINPNLSDRTIFWQLAKLQDMGVLQKIGQNSFHVRN” are within 0.2 log units of each other in “soluble fraction (log2)” value: -0.288 for the first, -0.183 for the second.

Going from “HMKIERKGDESYLSFVERATSALSDGLIDYQQWGRAVVGEDLYSEENTRRIAKFFAQFIQNLEND” to “HMKIKAKYTTDFGIRIYAPKPGKNYWRISYVDLDGKLRDTTATSEKTALDKSAEIEVLLRNN”, the “soluble fraction (log2)” value rises from -2.62 to -2.2.

Compared with “HMKILALETSAKAVSAAVSENGRILASGYQDTGLTHSRTLMPIVEHILKNTDLKLSDMDAIAVAVGPG”, “HMKIMSLSERHQKILELLKVNGIVSVNSLSRQLNVSSVTIRKDLGLLEEKKLLYRSHGGAIQID” is lower in “soluble fraction (log2)” value: 0.144 for the first, -3.35 for the second.

Compared with “HMKINYNEFLRRFLGEKEGDIIEMETGKRIGTHKGYWFHTIGQRKGLGLGGGPWFVIRKDIDENIIYVSHG”, “HMKIPGIGDVYAILARVYSGPQFTWIEAGFPEDDTKAYSYLHTAIRKGSAIAILQAMRTSGALTPTIEKE” is higher in “soluble fraction (log2)” value: -1.3 for the first, -0.0245 for the second.

Compared with “HMKIPPIMFVRAIMVAGRQSMAIMDIEGVGTGIIVRSGYSFSNGEGKVVRIGPDKVTVNWSGKHLDLAPG”, “HMKIPQFAVIKQYLEQQIKTAQWAPGRQIPTEQSLADTFSVSRMTARRAVQQLADAGLLERTQGSGTFVAD” is higher in “soluble fraction (log2)” value: -3.8 for the first, -0.162 for the second.

“HMKISDTITEKILTDNNFSMELAKKIGIQQGSLLSSIRRNRDSRILRLWEAVMFYKEQGYTEEEIFTDY” and “HMKISELAKKVIASGRVTQWAKHPHIYFVNGMRKVAIELDVNGVFSISMRYYPYDPADRELVENLIRGD” are within 0.2 log units of each other in “soluble fraction (log2)” value: -2.61 for the first, -2.67 for the second.

Going from “HMKIVQHQLQLPVHVAGKFKGMFYKSDFVMSEDYDDDGNMILAVRLPLVDWNKFLKRTDNELSQYIKVTP” to “HMKKALTAEQEARVRELYFRGINYYSANRYQDAIAEWRKVLAIDPNHEKAKNNIRQTLILLK”, the “soluble fraction (log2)” value rises from -1.64 to -1.26.

With “HMKKDNLKKIKSIDEDIENELFKLGIYHFEQISIWSSKNAEWIENFLNLPNYVRANQWVEQAKILK” the “soluble fraction (log2)” value was -1.57.
